Experiments:
Conditions in all cases: glycan lost; control: WT PTTG1IP-GFP
[1] = anti-GFP Western blot of isolated EVs
[2] = anti-GFP Western blot of cell lysates
[3] = median fluorescence intensity of GFP+ EVs
[4] = single-vesicle analysis, GFP+ EVs in conditioned media

| Protein | localisation_or_trafficking [1] | expression_or_secretion [2] | localisation or trafficking, percent of wt [3] | localisation_or_trafficking, other: % GFP+ vesicles [4] |
| --- | --- | --- | --- | --- |
| PTTG1IP (pituitary tumor-transforming gene 1 protein-interacting protein): 2NQ (protein) parent chain: MAPGVARGPTPYWRLRLGGAALLLLLIPVAAAQEPPGAACSQNTNKTCEECLKNVSCLWCNTNKACLDYPVTSVLPPASLCKLSSARWGVCWVNFEALIITMSVVGGTLLLGIAICCCCCCRRKRSRKPDRSEEKAMREREERRIRQEERRAEMKTRHDEIRKKYGLFKEENPYARFENN | decreases | no change | 48% | decreases, 27.2 vs 84 |
| PTTG1IP (pituitary tumor-transforming gene 1 protein-interacting protein): N54Q (protein) parent chain: MAPGVARGPTPYWRLRLGGAALLLLLIPVAAAQEPPGAACSQNTNKTCEECLKNVSCLWCNTNKACLDYPVTSVLPPASLCKLSSARWGVCWVNFEALIITMSVVGGTLLLGIAICCCCCCRRKRSRKPDRSEEKAMREREERRIRQEERRAEMKTRHDEIRKKYGLFKEENPYARFENN |  | no change |  | decreases, 45.7 vs 84 |
| PTTG1IP (pituitary tumor-transforming gene 1 protein-interacting protein): N45Q (protein) parent chain: MAPGVARGPTPYWRLRLGGAALLLLLIPVAAAQEPPGAACSQNTNKTCEECLKNVSCLWCNTNKACLDYPVTSVLPPASLCKLSSARWGVCWVNFEALIITMSVVGGTLLLGIAICCCCCCRRKRSRKPDRSEEKAMREREERRIRQEERRAEMKTRHDEIRKKYGLFKEENPYARFENN |  | no change |  | decreases, 43.6 vs 84 |

From article PMC11655445
